Test results taken from the nanobody polyreactivity screen of Harvey et al. (2022).

assay: yeast display, Sf9 membrane polyspecificity reagent, FACS + sequencing; frameworks hold sequencing errors
In short: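 A nanobody's polyreactivity label depends on the gate it was sorted from. Yeast display cells were stained with 10% biotinylated, detergent-solubilized Sf9 membrane reagent for 1 hour at 4 °C, enriched on streptavidin microbeads and sorted by FACS. The low and high (top ~1%) gates were set on anti-HA fluorescence for expression and streptavidin fluorescence for reagent binding.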

Sequence	polyreactivity (PSR sort gate)
QVQLVESGGGLVQAGGSLRLSCAASGSIFPQYAIGWYRQAPGKERELVAAITRSGGGTHYADSVKGRFTISRDNAKNTVYLQMNSLKPEDTAVYYCAKAGYRSEFEYWGQGTQVTVSS	low polyreactivity
QVQLVESGGGLVQAGGSLRLSCAASGSIFPRNAMGWYRQAPGKERELVAAIRKSGGSTYYADSVKGRFTISRDNAKNTVYLQMNSLKPEDTAVYYCAKTYSVSSWQSPIYNYWGQGTQVTVSS	low polyreactivity
QVQLVESGGGLVQAGGSLRLSCAASGSIFPRNAMGWYRQAPGKERELVAAITTTGGITHYADSVKGRFTISRDNAKNTVYLLMNSLKPEDTAVYYCNASYEYNAGRVETEYDYWGQGTKVTVSS	low polyreactivity
QVQLVESGGGLVQAGGSLRLSCAASGSIFPRNAMGWYRQAPGKERELVAAITTTGGITHYADSVKGRFTISRDNAKNTVYLQMNSLKPEDTAVYYCNASYEYNAGRVETEYDYWGQGTQVTVSS	low polyreactivity
QVQLVESGGGLVQAGGSLRLSCAASGSIFPSNAMGWYRQAPGKERELVAAINRDGITNYADSVKGRFTISRDNAKNTVYLQMNSLKPEDTAVYYCNAYNYDFYASFWYEVDYWGLGTQVTVSS	low polyreactivity
QVQLVESGGGLVQAGGSLRLSCAASGSIFPSNAMGWYRQAPGKERELVATIGRGGTTNYADSVKGRFTISRDNAKNTVYLQMNSLKPEDTAVYYCNAERIWRYKYGYDYWGQGTQVTVSS	high polyreactivity
QVQLVESGGGLVQAGGSLRLSCAASGSIFPSYAMGWYRQAPGKERELVAAISVSGGSTYYADSVKGRFTISRDTAKNTVYLQMNSLKPEDTAVYYCAAQHGYPRYYYWGQGTQVTVSS	high polyreactivity
QVQLVESGGGLVQAGGSLRLSCAASGSIFPTNAMGWYRQAPGKERELVAAITGNGGRTYYADSVKGRFTISRDNAKNTVYLQMNSLKPEDTAVYYCAALTYASNRYGYWGQGTQVTVSS	high polyreactivity
QVQLVESGGGLVQAGGSLRLSCAASGSIFPVNTMGWYRQAPGKERELVAAITQRGGRTYYADSVKGRFTISRDNAKNTVYLQMNSLKPEDTAVYYCNRDLGAGGYDYWGQGTQVTVSS	low polyreactivity
QVQLVESGGGLVQAGGSLRLSCAASGSIFPVYAMGWYRQAPGKDRELDATITDGGGDTYYADSVMGRFTISRDNAKNTVYLQMNSLKPEDTAVLYCAARSIPEWSAYWYDYWGQGTQVTVSS	low polyreactivity
QVQLVESGGGLVQAGGSLRLSCAASGSIFPVYAMGWYRQAPGKERELVAAISLRAGNTYYADSVKGRFTISRDNAKNTVYLQMNSLKPEDTAVYYCAVEWFRSTTIFDYWGQGTQVTVSS	high polyreactivity
QVQLVESGGGLVQAGGSLRLSCAASGSIFPWNTMGWYRQAPGKERELVARISTSGASTYYADSVKGRFTISRDNAKNTVYLQMNSLKPEDTAVYYCAARKRPFYKYDYWGQGTQVTVSS	high polyreactivity
QVQLVESGGGLVQAGGSLRLSCAASGSIFPWYAMGWYRQAPGKERELVAAITISGGSTHYADSVKGRFTISRDNAKNTVYLQMNSLKPEDTAVYYCATPRYPSYEYWGQGTQVTVSS	low polyreactivity
QVQLVESGGGLVQAGGSLRLSCAASGSIFPYAMGWYRQAPGKERELVAAITSGVRTNYADSVKGRFTISRDNAKNTVYLQIYSLKPEDTAVYYCAARYFPHYYSKYDYWGQGTQVTVSS	low polyreactivity
QVQLVESGGGLVQAGGSLRLSCAASGSIFPYNAMGWYRQAPGKERELVAAITSSGGRTYYADSVKGRFTISRDNAKNTVYLQMNSLKPEDTAVYYCAVEANYHTYWLYYWGQGTQVTVSS	high polyreactivity
QVQLVESGGGLVQAGGSLRLSCAASGSIFPYNAMGWYRQAPGKERQLVARISWSGGSTYYADSVKGRFTISRDNAKNTVYLQMNSLKPEDTAVYYCAATIIFDAQYRFYYWGQGTQVTVSS	low polyreactivity
QVQLVESGGGLVQAGGSLRLSCAASGSIFPYNAMGWYRQPPGKERELVATISSGGSTNYADSVKGRFTISRDNAKNTVYLQMNSLKPEDTAVFYCAADVIVFYYAPNYWGDIEYGYWGQGTQVTVSS	low polyreactivity
QVQLVESGGGLVQAGGSLRLSCAASGSIFPYNVMGWYRQAPGKERELVAAISTRGGRTYYADSVKGRFTISRDNAKNTVYLQMNSLKPEDTAVYYCATAGGPYSASGYYWGQGTQVTVSS	high polyreactivity
QVQLVESGGGLVQAGGSLRLSCAASGSIFPYYAMGWYRPAPGKERELVASINQSDGTTYYADSVKGRFTISRDNAKNTVYLQMNRLKPEDTAVSYCAADTTLQDFIRYRPMGSYDSWGQGTQVTVSS	low polyreactivity
QVQLVESGGGLVQAGGSLRLSCAASGSIFPYYAMGWYRQAPGKERELVARITWRSTSTYADSVKGRFTISRDNAKNTVYLQMNSLKPEDTAVYYCAVRLLSTYIIEYDHWGQGTQVTVSS	low polyreactivity
QVQLVESGGGLVQAGGSLRLSCAASGSIFPYYTMGGYRQAPGKERELVAVISSGGSTNYAVSVKGRFTISRDNAKNTVYLQMNSLKPEDTAVYYCNARRYWLRYDYWGLGTQVTVSS	low polyreactivity

Sequence	polyreactivity (PSR sort gate)
QVQLVESGGGLVQAGGSLRLSCAASGSIFPYYTMGWYRQAPGKERELVAAISGSGTSTYYADSVKGRFTISRDNAKNTVYLQMISLKPEDTAVYYCAKRFRYGYVNYYYWGQGTQVTVSS	low polyreactivity
QVQLVESGGGLVQAGGSLRLSCAASGSIFQGYALGWYRQAPGKERELVAAITASGGSTYYADSVKGRFTISRDNAKNTVYLQMNSLKPEDTAVYYCATDSYWRQDLYRYEYWGQGTQVTVSS	high polyreactivity
QVQLVESGGGLVQAGGSLRLSCAASGSIFQGYAMGWYRQAPGKERELVAGITSSGGSTHYADSVKGRFTISRDNAKNTVYLQMNSLKPEDTAVYDYWGQGTQVTVSS	low polyreactivity
QVQLVESGGGLVQAGGSLRLSCAASGSIFQHYAMGLYRQAPGKERELVAAISYDTTSTYYADSVKGRFTISRDNAKNTVYLQMNSLKPEDTAVYYCNTYPEVYGPFQYDYWGQGTQVTVSS	low polyreactivity
QVQLVESGGGLVQAGGSLRLSCAASGSIFQINAMGWYRPAPGKERECVASITYSGGSTYYADSVKGRFTISRDNAKNTVYLQMNSLKPEDTAVYYCAAESYWGYDYWGQGTQVTVSS	high polyreactivity
QVQLVESGGGLVQAGGSLRLSCAASGSIFQINVMGWYRQAPGKERELVAASYADSVKGRFTISRDNAKNTVYLQMNSLKPEDTAVYYCARSNPAYSIYDYWGQGTQVTVSS	low polyreactivity
QVQLVESGGGLVQAGGSLRLSCAASGSIFQINVMGWYRQAPGKERELVAASYADSVKGRFTISRDNAKNTVYVQMNSLKPEDTAVYYCARTNPAYSIYDYWGQGTQVTVSS	low polyreactivity
QVQLVESGGGLVQAGGSLRLSCAASGSIFQKNAMGWYRQAPGKERELVATIRWSGGRTYYADSVKGRFTISRDNAKNTVYLQMNSLKPEDTAVYYCNAGYKGDYDYWGQGTQVTVSS	high polyreactivity
QVQLVESGGGLVQAGGSLRLSCAASGSIFQNYAMGWYRQAPGKERELVAAINDDSTYYADSVKGRFTISRDNAKNTVYLQMNSLKPEDTAVYYCNAEDYVTLKIDLSWPYGYWGQGTQVTVSS	low polyreactivity
QVQLVESGGGLVQAGGSLRLSCAASGSIFQRNAMGWYRQAPGKERELVAAISRSGGRTYYADSVKGRFTISRDNAKNTVYLQMNILKPEDTAVYYCAADSPYIQNRFEYWGQGTQVTVSS	high polyreactivity
QVQLVESGGGLVQAGGSLRLSCAASGSIFQRYAMGWYRQAPGKEREFVAAISGRGGSTYYADSVKGRFTISRDNAKNTVYLQMNSLKPEDTAVYYCAVRGRSYVRTYDYWGQGTQVTVSS	high polyreactivity
QVQLVESGGGLVQAGGSLRLSCAASGSIFQSNAMGWDRQAPGKERELVAAISSSGVRTYYADSVKGRFTISRDNAKNTVYLQMNSLKPEDTAVYYCATGWYYAGGPTYEYYYWGQGTQVTVSS	low polyreactivity
QVQLVESGGGLVQAGGSLRLSCAASGSIFQSNAMGWYRQPPGKERELVAAISSSGVRTYYADSVKGRFTISRDNAKNTVYLQMNSLKPEDTAVYFCATGWYYAGGPTYEYYYWGQGTQVTVSS	low polyreactivity
QVQLVESGGGLVQAGGSLRLSCAASGSIFQSYAMGWYRQAPGKERELVAAITERGGSTYYADSVKGRFTISRDTAKNTVYLQMNSLKPEDTAVYYCAADIYYWWCLSDLYTPTEGDYWGQGTQVTVSS	low polyreactivity
QVQLVESGGGLVQAGGSLRLSCAASGSIFQVYAMGWYRQAPGKERELVAAISGGGSSTYYADSVKGRFTISRDNAKNTVYLQMNSLKPEDTAVYYCAAAYSWYDNNRYDYWGQGTQVTVSS	low polyreactivity
QVQLVESGGGLVQAGGSLRLSCAASGSIFQVYSMGWYRQAPGKEREFVAAISFSGGGTYYADSVKGRFTISRDNAKNTVYLQMNSMKPEDTAVYYCAADVSGWEYDYWGQGTQVTVSS	low polyreactivity
QVQLVESGGGLVQAGGSLRLSCAASGSIFQYNTMGWYRQAPGKERELVAAINWSGVSTYYADSVKGRFTISRDNAKNTVYLQMNILKPEDTAVYYCNARRYVDGSYIYDRGYWGQGTQVTVSS	high polyreactivity
QVQLVESGGGLVQAGGSLRLSCAASGSIFQYNVKGWYIQAPGTERELVAAITSGGSTYYADSVKGRFTISRDNAKNTVYLQMNSLKPEDTAVYYCARDIRRKGFRYDYWGQGTQVTVSS	high polyreactivity
QVQLVESGGGLVQAGGSLRLSCAASGSIFQYYAMGWYRQAAGKERELVAAISGSGGRTYYADSVKGRFTISRDNAKNTVYLQMNSLKPEDTAVYYCNTVWWKQYNYWGQGTQVTVSS	high polyreactivity
QVQLVESGGGLVQAGGSLRLSCAASGSIFQYYGMGWYRQAPGKERELVASISRSGGSTYYADSVKGRFTISRDNAKNTVYLQMNSLKPEDTAVYYCNKRTYRQLSSWDYTYYYWGQGTQVTVSS	low polyreactivity
